This note sets out measurements from patent US7183387 (Genentech, dated 2007).

Changes are numbered by the printed parent chain. Names and notes keep the numbering of the source.

The target of assay [1] is T1, human FcγRIIIA-Phe158 α subunit extracellular domain-His6-GST fusion (human, UniProt P08637 17-208).
T1 construct: extracellular domain; also called FcγRIIIA-F158; CD16; not shown: glutathione S transferase (GST)
The experiment in a line: hexamer ELISA. A general note: In an ELISA, binding on a coated surface is turned into a signal by an enzyme label.

Assay [2] addresses T2, human FcγRIIA-Arg131 α subunit extracellular domain-His6-GST fusion (human, UniProt P12318 34-217).
T2 construct: extracellular domain; also called FcγRIIA-R131; not shown: glutathione S transferase (GST)
T2 sequence: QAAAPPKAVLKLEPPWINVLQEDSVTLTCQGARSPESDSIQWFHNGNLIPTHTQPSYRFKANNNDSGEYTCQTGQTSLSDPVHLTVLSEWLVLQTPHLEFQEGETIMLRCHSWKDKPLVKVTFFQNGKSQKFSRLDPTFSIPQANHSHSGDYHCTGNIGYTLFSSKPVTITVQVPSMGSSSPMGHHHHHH
The experiment in a line: hexamer ELISA.

The target in assay [3] is T3, human FcγRIIB α subunit extracellular domain-His6-GST fusion (human, UniProt P31994 43-217).
T3 construct: extracellular domain; also called CD32; not shown: glutathione S transferase (GST)
T3 sequence: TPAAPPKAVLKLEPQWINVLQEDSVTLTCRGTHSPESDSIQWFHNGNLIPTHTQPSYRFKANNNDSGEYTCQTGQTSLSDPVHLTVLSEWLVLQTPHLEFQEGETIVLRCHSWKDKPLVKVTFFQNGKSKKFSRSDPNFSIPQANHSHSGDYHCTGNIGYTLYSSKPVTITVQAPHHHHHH
The experiment in a line: hexamer ELISA.

In assay [4] the target is T1, human FcγRIIIA-Phe158 α subunit …. The experiment in a line: hexamer ELISA. This is another data set of the same source.
Assay [5] addresses T4, human neonatal Fc receptor (FcRn), biotinylated (human, UniProt P55899 24-297; P61769 21-119, biotinylated (biotin-X-NHS)).
T4 construct: captured on streptavidin plates
Kind of assay: FcRn ELISA, pH 6.0.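 Note: Streptavidin-captured FcRn plates, IgG variants titrated 2 h at pH 6.0, peroxidase anti-human IgG read at 450 nm, variant over standard concentration at the standard curve mid-point absorbance.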

Assay [6] has as its target T5, human FcγRIA α subunit extracellular domain-His6-GST fusion (human, UniProt P12314 16-292).
T5 construct: extracellular domain; also called GST-FcγRIA; CD64; not shown: glutathione S transferase (GST)
The experiment in a line: FcγRI ELISA and THP-1 cells, averaged.

Assay [7] has as its target T6, human FcγRIIA-R131 α subunit extracellular domain-His6-GST fusion (human, UniProt P12318 34-217).
T6 construct: ECD-6His-GST fusion made in 293 cells; also called FcγRIIA-Arg131; not shown: glutathione S transferase (GST)
T6 sequence: T2 sequence
The experiment in a line: ELISA, IgG complex, receptor coated.

The target of assay [8] is T7, human FcγRIIA-H131 α subunit extracellular domain-His6-GST fusion (human, UniProt P12318 34-217).
T7 construct: ECD-6His-GST fusion made in 293 cells; also called FcγRIIA-His131; not shown: glutathione S transferase (GST)
T7 sequence: T2 sequence with R134H
The experiment in a line: ELISA, IgG complex, receptor coated.

The target in assay [9] is T8, human FcγRIIIA-F158 α subunit extracellular domain-His6-GST fusion (human, UniProt P08637 17-208).
T8 construct: ECD-6His-GST fusion made in 293 cells; also called FcγRIIIA-Phe158; not shown: glutathione S transferase (GST)
The experiment in a line: ELISA, IgG complex, receptor coated.

The target of assay [10] is T9, human FcγRIIA-H131 α subunit extracellular domain-His6-GST fusion protein (human, UniProt P12318 34-217).
T9 construct: also called FcγRIIA-His131; not shown: glutathione S-transferase (GST)
T9 sequence: T2 sequence with R134H
Kind of assay: ELISA, IgG:IgE hexamer on coated FcγRIIA-H131-GST.

Assay [11] deals with T9, human FcγRIIA-H131 α subunit …. The experiment in a line: ELISA; binding ratio on FcγRIIA-H131 divided by that on FcγRIIA-R131.
Assay [12] concerns the target T10, human FcγRIIA-R131 α subunit extracellular domain-His6-GST fusion protein (human, UniProt P12318 34-217).
T10 construct: ECD-6His-GST fusion made in 293 cells, coated on the plate; also called FcγRIIA-Arg131; not shown: glutathione S-transferase (GST)
T10 sequence: T2 sequence
Kind of assay: ELISA, IgG:IgE hexamer on coated FcγRIIA-R131-GST; value carried over from Table 6, 7 or 8.

Assay [13] concerns the target T10, human FcγRIIA-R131 α subunit …. Kind of assay: ELISA, IgG:IgE hexamer on coated FcγRIIA-R131-GST; separate assays run together with the H131 assays.
For assay [14], the target named is T11, human FcγRIIA-R131 α subunit extracellular domain-6His-GST fusion (human, UniProt P12318 34-217).
T11 construct: also called FcγRIIA-Arg131; not shown: glutathione S-transferase (GST)
T11 sequence: T2 sequence
The experiment in a line: ELISA, IgG:IgE hexamers on receptor-GST.

Assay [15] concerns the target T12, human FcγRIIB α subunit extracellular domain-6His-GST fusion (human, UniProt P31994 43-217).
T12 construct: not shown: glutathione S-transferase (GST)
T12 sequence: T3 sequence
Kind of assay: ELISA, IgG:IgE hexamers on receptor-GST.

In assay [16] the target is T13, human FcγRIIIA-F158 α subunit extracellular domain-6His-GST fusion (human, UniProt P08637 17-208).
T13 construct: also called FcγRIIIA-Phe158; not shown: glutathione S-transferase (GST)
Kind of assay: ELISA, IgG:IgE hexamers on receptor-GST.

Assay [17] addresses T14, human FcγRI (FcγRIA) α subunit extracellular domain-His6-GST fusion (human, UniProt P12314 16-292).
T14 construct: Reported FcγRI values are the average of the plate ELISA on this fusion and of a flow cytometry assay on THP-1 cells; also called GST-FcγRIA; not shown: glutathione S-transferase (GST)
The experiment in a line: monomeric IgG; ELISA on receptor-GST and THP-1 cells, averaged.

T13 sequence (P08637 other isoform, or with tags, fused parts or gaps, form in doubt): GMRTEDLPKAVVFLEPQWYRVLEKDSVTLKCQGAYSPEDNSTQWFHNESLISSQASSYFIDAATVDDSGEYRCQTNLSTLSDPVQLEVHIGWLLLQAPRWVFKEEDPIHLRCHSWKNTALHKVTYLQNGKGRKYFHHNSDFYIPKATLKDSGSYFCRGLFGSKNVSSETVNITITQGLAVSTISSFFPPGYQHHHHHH
T1 sequence (P08637 other isoform, or with tags, fused parts or gaps): as the sequence (P08637 other isoform, or with tags, fused parts or gaps, form in doubt) above
T8 sequence (P08637 other isoform, or with tags, fused parts or gaps, form in doubt): as above
T14 sequence (P12314 other isoform, or with tags, fused parts or gaps, form in doubt): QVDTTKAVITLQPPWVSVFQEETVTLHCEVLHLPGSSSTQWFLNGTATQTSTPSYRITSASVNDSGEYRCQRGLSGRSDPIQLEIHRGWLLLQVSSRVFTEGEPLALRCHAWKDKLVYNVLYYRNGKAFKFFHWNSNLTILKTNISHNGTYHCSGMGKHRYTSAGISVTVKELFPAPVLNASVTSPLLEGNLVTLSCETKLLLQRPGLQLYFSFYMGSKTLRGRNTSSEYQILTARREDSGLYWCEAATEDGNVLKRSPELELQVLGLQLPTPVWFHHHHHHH
T4 sequence (P55899 24-297 limits assumed, chain 1 of 2): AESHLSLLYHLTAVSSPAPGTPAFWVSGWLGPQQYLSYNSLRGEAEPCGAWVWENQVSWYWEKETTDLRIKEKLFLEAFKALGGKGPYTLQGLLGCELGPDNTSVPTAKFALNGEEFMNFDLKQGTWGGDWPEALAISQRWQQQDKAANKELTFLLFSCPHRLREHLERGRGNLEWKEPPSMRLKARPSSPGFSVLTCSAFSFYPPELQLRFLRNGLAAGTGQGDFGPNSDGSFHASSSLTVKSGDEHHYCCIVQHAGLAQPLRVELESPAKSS
T4 sequence (P61769 21-119 limits assumed, chain 2 of 2): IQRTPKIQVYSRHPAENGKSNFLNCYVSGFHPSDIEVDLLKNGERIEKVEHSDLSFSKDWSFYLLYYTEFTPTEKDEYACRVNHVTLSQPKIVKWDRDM
T5 sequence (P12314 other isoform, or with tags, fused parts or gaps): as the sequence (P12314 other isoform, or with tags, fused parts or gaps, form in doubt) above

B1: anti-IgE E27 IgG1 Glu293Ala (antibody)
heavy: not shown
light: DIQLTQSPSSLSASVGDRVTITCRASKPVDGEGDSYLNWYQQKPGKAPKLLIYAASYLESGVPSRFSGSGSGTDFTLTISSLQPEDFATYYCQQSHEDPYTFGQGTKVEIKRTVAAPSVFIFPPSDEQLKSGTASVVCLLNNFYPREAKVQWKVDNALQSGNSQESVTEQDSKDSTYSLSSTLTLSKADYEKHKVYACEVTHQGLSSPVTKSFNRGEC
On to B1, for which the “reduction in binding against native IgG1” value in assay [1] was 70%. In addition, the “ratio to native IgG1” value in [2] is 1.08 ratio; in [3], 1.07 ratio; in assay [4], 0.31 ratio; in [5] it was 0.85 ratio; in assay [6], 1.11 ratio.

B2: anti-IgE E27 IgG1 variant S267(280)A (antibody)
heavy: not shown
light: B1 light
notes: Fc variant of E27; also called IG2 15; G15
For the molecule B2, the “ratio of binding, variant/native IgG1 (mean)” value came out at 1.64 ratio in assay [7], 1.05 ratio in assay [8] and 1.14 ratio in [9].

B3: anti-IgE E27 IgG1 variant Ser267Ala (antibody)
heavy: not shown
light: B1 light
notes: also called S267(280)A; S280A
Turning to B3, the “ratio of binding of the variant to that of native IgG1” value (shortened to “ratio of binding of the variant”) is 1.1 ratio (variant/native IgG1) in assay [10], 1.52 ratio (variant/native IgG1) in [12] and 1.53 ratio (variant/native IgG1) in [13]. In addition, in [11], the H131/R131 was 0.71 ratio (H131 value/R131 value).

B4: E27 IgG1 variant A339(359)T (antibody)
heavy: not shown
light: B1 light
notes: also called IG2 273
Consider B4, for which the “ratio to native IgG1” value in assay [14] was 1.11; in assay [15] it was 1.23; in assay [16], 1.42; in assay [17], 1.23.

B5: anti-IgE E27 IgG1 variant T307(326)A (antibody)
heavy: not shown
light: B1 light
notes: Fc variant of E27; also called IG2 41; Thr307Ala
On to B5, for which the “ratio of binding, variant/native IgG1 (mean)” value in assay [7] was determined as 1.19 ratio; in assay [8], 1.37 ratio; in assay [9] it was 1.12 ratio.

B6: anti-IgE E27 IgG1 variant V305(324)A (antibody)
heavy: not shown
light: B1 light
notes: Fc variant of E27; also called IG2 40; Val305Ala
Take B6: the “ratio of binding, variant/native IgG1 (mean)” value turned out to be 1.12 ratio in [7], 1.04 ratio in [8] and 0.84 ratio in assay [9].

B7: anti-IgE E27 IgG1 variant Val305Ala (antibody)
heavy: not shown
light: B1 light
notes: also called V305(324)A; IG2 40
As for B7, the “ratio of binding of the variant” value in assay [10] was 1.06 ratio (variant/native IgG1); in assay [12] it was 1.12 ratio (variant/native IgG1); in [13], 1 ratio (variant/native IgG1). In addition, in [11], the H131/R131 was 1.08 ratio (H131 value/R131 value).

B8: anti-IgE E27 IgG1 variant S267(280)G (antibody)
heavy: not shown
light: B1 light
notes: Fc variant of E27; also called IG2 189; Ser267Gly
On to B8, for which the “ratio of binding, variant/native IgG1 (mean)” value was found to be 1.21 ratio in [7], 0.59 ratio in assay [8] and 0.09 ratio in assay [9].

B9: anti-IgE E27 IgG1 variant Thr307Ala (antibody)
heavy: not shown
light: B1 light
notes: also called T307(326)A; IG2 41
In the case of B9, the “ratio of binding of the variant” value in [10] is 1.18 ratio (variant/native IgG1); in assay [12], 1.07 ratio (variant/native IgG1); in assay [13] it was 1.28 ratio (variant/native IgG1). In [11], the H131/R131 is 0.94 ratio (H131 value/R131 value).

B10: anti-IgE E27 IgG1 variant His268Ala (antibody)
heavy: not shown
light: B1 light
notes: also called H268(281)A; H281A
B10: the “ratio of binding of the variant” value in [10] is 0.97 ratio (variant/native IgG1); in assay [12], 1.21 ratio (variant/native IgG1); in assay [13] it was 1.3 ratio (variant/native IgG1). Also, in [11], the H131/R131 is 0.75 ratio (H131 value/R131 value).

B11: E27 IgG1 variant K290(307)E (antibody)
heavy: not shown
light: B1 light
notes: also called IG2 77
Take B11: the “ratio to native IgG1” value in assay [14] amounted to 1.1; in [15] it was 1.2; in [16] it was 1.3; in assay [17] it was 1.14.

B12: anti-IgE E27 IgG1 variant Ser267Ala/His268Ala (antibody)
heavy: not shown
light: B1 light
notes: also called S267(280)A H268(281)A; IG2 96
In the case of B12, the figures for the “ratio of binding of the variant” value in assay [10], in assay [12] and in assay [13] were 1.02 ratio (variant/native IgG1), 1.41 ratio (variant/native IgG1) and 1.57 ratio (variant/native IgG1), respectively. The H131/R131 in assay [11] is 0.65 ratio (H131 value/R131 value).

B13: E27 IgG1 variant K290(307)R (antibody)
heavy: not shown
light: B1 light
notes: also called IG2 78
For B13, the “ratio to native IgG1” value stood at 1.05 in [14], 1.15 in [15], 1.08 in assay [16] and 1.25 in assay [17].

B14: anti-IgE E27 IgG1 Tyr296Phe (antibody)
heavy: not shown
light: B1 light
On to B14, for which the “reduction in binding against native IgG1” value in assay [1] came to 50%. The “ratio to native IgG1” value in assay [2] turned out to be 0.97 ratio; in assay [3] it was 0.86 ratio; in assay [4], 0.55 ratio; in assay [5] it was 0.79 ratio; in assay [6], 1.03 ratio.

B15: anti-IgE E27 IgG1 variant Asn315Ala (antibody)
heavy: not shown
light: B1 light
notes: also called IG2 45
In the case of B15, the “ratio of binding of the variant” value in assay [10] is 1.1 ratio (variant/native IgG1); in [12], 1.15 ratio (variant/native IgG1); in [13] it was 1.11 ratio (variant/native IgG1). Also, the H131/R131 in assay [11] was 0.99 ratio (H131 value/R131 value).

B16: anti-IgE E27 IgG1 variant Lys317Ala (antibody)
heavy: not shown
light: B1 light
notes: also called K317(336)A; IG2 46
On to B16, for which the “ratio of binding of the variant” value in assay [10] is 1.08 ratio (variant/native IgG1); in assay [12] it was 1.13 ratio (variant/native IgG1); in assay [13], 1.1 ratio (variant/native IgG1). Further, in assay [11], the H131/R131 is 0.99 ratio (H131 value/R131 value).

B17: anti-IgE E27 IgG1 variant Ser267Gly (antibody)
heavy: not shown
light: B1 light
notes: also called S267(280)G; IG2 189
B17: the “ratio of binding of the variant” value in assay [10] is 0.54 ratio (variant/native IgG1); in [12], 1.18 ratio (variant/native IgG1). In addition, the H131/R131 in [11] was 0.47 ratio (H131 value/R131 value).
